# Measured values published in paper PMC9047656 (ACS Nano, 2022).
# B1: canavalin (natural protein, Canavalia ensiformis (jack bean), UniProt P50477 27-445, looked up)
# chain: HSGHSGGEAEDESEESRAQNNPYLFRSNKFLTLFKNQHGSLRLLQRFNEDTEKLENLRDYRVLEYCSKPNTLLLPHHSDSDLLVLVLEGQAILVLVNPDGRDTYKLDQGDAIKIQAGTPFYLINPDNNQNLRILKFAITFRRPGTVEDFFLSSTKRLPSYLSAFSKNFLEASYDSPYDEIEQTLLQEEQEGVIVKMPKDQIQEISKHAQSSSRKTLSSQDKPFNLRSRDPIYSNNYGKLYEITPEKNSQLRDLDILLNCLQMNEGALFVPHYNSRATVILVANEGRAEVELVGLEQQQQQGLESMQLRRYAATLSEGDIIVIPSSFPVALKAASDLNMVGIGVNAENNERNFLAGHKENVIRQIPRQVSDLTFPGSGEEVEELLENQKESYFVDGQPRHIDAGGKARRAHLPNLFRTFY
# Molecular target: the molecule itself
# Test: SEC-MALS
protein,measurement,value
B1,stoichiometry N,3
